Reference: patent US20260167721A1 (ABLEXIS, published 2026)

Tests used:
[1] = target: T1, human CD3 (on human Pan-T cells or donor PBMC) (human, UniProt P07766 23-207; P04234 22-171; P09693 23-182; P20963 22-164); experiment: cell-based or functional assay
[2] = target: T1, human CD3 (on human Pan-T cells or …); experiment: cell-based or functional assay; remark: listed apart in the source

T1 sequence (P07766 23-207, chain 1 of 4): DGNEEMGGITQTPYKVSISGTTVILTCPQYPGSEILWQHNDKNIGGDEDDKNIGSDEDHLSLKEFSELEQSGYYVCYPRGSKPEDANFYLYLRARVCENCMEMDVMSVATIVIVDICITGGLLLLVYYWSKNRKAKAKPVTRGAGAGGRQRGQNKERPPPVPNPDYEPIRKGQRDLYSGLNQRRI
T1 sequence (P04234 22-171, chain 2 of 4): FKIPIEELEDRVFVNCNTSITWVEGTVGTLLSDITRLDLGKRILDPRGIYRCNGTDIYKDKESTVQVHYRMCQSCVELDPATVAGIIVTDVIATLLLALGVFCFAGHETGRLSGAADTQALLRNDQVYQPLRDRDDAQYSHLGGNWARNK
T1 sequence (P09693 23-182, chain 3 of 4): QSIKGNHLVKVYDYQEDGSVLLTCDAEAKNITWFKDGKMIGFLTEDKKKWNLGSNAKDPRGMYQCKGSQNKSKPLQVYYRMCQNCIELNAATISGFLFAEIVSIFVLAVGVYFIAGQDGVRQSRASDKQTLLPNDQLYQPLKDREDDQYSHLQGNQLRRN
T1 sequence (P20963 22-164, chain 4 of 4): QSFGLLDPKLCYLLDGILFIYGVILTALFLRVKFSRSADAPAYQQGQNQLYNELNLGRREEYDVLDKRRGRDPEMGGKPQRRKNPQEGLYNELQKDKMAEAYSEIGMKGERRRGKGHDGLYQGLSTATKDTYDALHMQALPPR

| Binder | RTCC Assay, Donor 0, EC50 [1] | RTCC Assay, Donor 0, gMFI max [1] | RTCC Assay, Donor 1, EC50 [1] | RTCC Assay, Donor 1, gMFI max [1] | RTCC Assay, Donor 2, EC50 [1] | RTCC Assay, Donor 2, gMFI max [1] | RTCC Assay, Donor 3, EC50 [1] | RTCC Assay, Donor 3, gMFI max [1] | Cytokine Release Assay (IFNγ), Donor 0, EC50 [2] | Cytokine Release Assay (IFNγ), Donor 0, gMFI max [2] | Cytokine Release Assay (IFNγ), Donor 1, gMFI max [2] | Cytokine Release Assay (IFNγ), Donor 2, EC50 [2] | Cytokine Release Assay (IFNγ), Donor 2, gMFI max [2] | Cytokine Release Assay (IFNγ), Donor 3, gMFI max [2] | Cytokine Release Assay (IFNγ), Donor 3, EC50 [2] |
| --- | --- | --- | --- | --- | --- | --- | --- | --- | --- | --- | --- | --- | --- | --- | --- |
| CD3 × CD33-BspAb85 (bispecific antibody) chain 1: EVQLVESGGGLVKPGGSLRLSCAASGFTFSSYSMNWVRQAPGKCLEWVSSISRSSGYIFYADSVKGRFTISRDNAKNSLYLQMNSLRAEDTAVYYCVRERVGAGFDYWGQGTLVTVSSGGGGSGGGGSGGGGSGGGGSNFMLTQPHSVSESPGKTVAISCTRSSGSIASNYVQWYQQRPGSSPTAVIYEDNQRPSGVPDRFSGSIDSSSNSAFLTISGLKTEDEADYYCQSYDSSNRVFGCGTKLTVLDKTHTCPPCPAPEFEGGPSVFLFPPKPKDTLMISRTPEVTCVVVDVSHEDPEVKFNWYVDGVEVHNAKTKPREEQYNSTYRVVSVLTVLHQDWLNGKEYKCKVSNKALPASIEKTISKAKGQPREPQVYTLPPCREEMTKNQVSLWCLVKGFYPSDIAVEWESNGQPENNYKTTPPVLDSDGSFFLYSKLTVDKSRWQQGNVFSCSVMHEALHNHYTQKSLSLSPGK chain 2: EVQLVQSGAEVKKPGSSVKVSCKASGYTITDSNIHWVRQAPGQSLEWIGYIYPYNGGTDYNQKFKNRATLTVDNPTNTAYMELSSLRSEDTAFYYCVNGNPWLAYWGQGTLVTVSSASTKGPSVFPLAPSSKSTSGGTAALGCLVKDYFPEPVTVSWNSGALTSGVHTFPAVLQSSGLYSLSSVVTVPSSSLGTQTYICNVNHKPSNTKVDKRVEPKSCDKTHTCPPCPAPEFEGGPSVFLFPPKPKDTLMISRTPEVTCVVVDVSHEDPEVKFNWYVDGVEVHNAKTKPREEQYNSTYRVVSVLTVLHQDWLNGKEYKCKVSNKALPASIEKTISKAKGQPREPQVCTLPPSREEMTKNQVSLSCAVKGFYPSDIAVEWESNGQPENNYKTTPPVLDSDGSFFLVSKLTVDKSRWQQGNVFSCSVMHEALHNRFTQKSLSLSPGK chain 3: DIQLTQSPSTLSASVGDRVTITCRASESLDNYGIRFLTWFQQKPGKAPKLLMYAASNQGSGVPSRFSGSGSGTEFTLTISSLQPDDFATYYCQQTKEVPWSFGQGTKVEVKRTVAAPSVFIFPPSDEQLKSGTASVVCLLNNFYPREAKVQWKVDNALQSGNSQESVTEQDSKDSTYSLSSTLTLSKADYEKHKVYACEVTHQGLSSPVTKSFNRGEC | 0.102 nM | 29900 gMFI | 0.006 nM | 78200 gMFI | 0.028 nM | 64200 gMFI | 0.045 nM | 85600 gMFI | 0.0832 nM | 983000 gMFI | 8040 gMFI | 0.0468 nM | 31400 gMFI | 104000 gMFI |  |
| CD3 × CD33-BspAb90 (bispecific antibody) chain 1: not shown chain 2: EVQLVQSGAEVKKPGSSVKVSCKASGYTITDSNIHWVRQAPGQSLEWIGYIYPYNGGTDYNQKFKNRATLTVDNPTNTAYMELSSLRSEDTAFYYCVNGNPWLAYWGQGTLVTVSSASTKGPSVFPLAPSSKSTSGGTAALGCLVKDYFPEPVTVSWNSGALTSGVHTFPAVLQSSGLYSLSSVVTVPSSSLGTQTYICNVNHKPSNTKVDKRVEPKSCDKTHTCPPCPAPEFEGGPSVFLFPPKPKDTLMISRTPEVTCVVVDVSHEDPEVKFNWYVDGVEVHNAKTKPREEQYNSTYRVVSVLTVLHQDWLNGKEYKCKVSNKALPASIEKTISKAKGQPREPQVCTLPPSREEMTKNQVSLSCAVKGFYPSDIAVEWESNGQPENNYKTTPPVLDSDGSFFLVSKLTVDKSRWQQGNVFSCSVMHEALHNRFTQKSLSLSPGK chain 3: DIQLTQSPSTLSASVGDRVTITCRASESLDNYGIRFLTWFQQKPGKAPKLLMYAASNQGSGVPSRFSGSGSGTEFTLTISSLQPDDFATYYCQQTKEVPWSFGQGTKVEVKRTVAAPSVFIFPPSDEQLKSGTASVVCLLNNFYPREAKVQWKVDNALQSGNSQESVTEQDSKDSTYSLSSTLTLSKADYEKHKVYACEVTHQGLSSPVTKSFNRGEC | 0.147 nM | 34800 gMFI | 0.012 nM | 76900 gMFI | 0.034 nM | 62300 gMFI | 0.047 nM | 84000 gMFI | 0.191 nM | 1.71e+06 gMFI | 10800 gMFI | 0.126 nM | 31600 gMFI | 513000 gMFI | 0.0851 nM |
| CD3 × CD33-BspAb86 (bispecific antibody) chain 1: EVQLVESGGGLVKPGGSLRLSCAASGFTFSSYSMNWVRQAPGKCLEWVSSISRSGTYIYYADSVKGRFTISRDNAKNSLYLQMNSLRAEDTAVYYCARERWELLYFDYWGQGTLVTVSSGGGGSGGGGSGGGGSGGGGSQTVVTQEPSLTVSPGGTVTLTCASSTGAVTSGYYPNWFQQKPGQAPRALIYSTSNKHSWTPARFSGSLLGGKAALTLSGVQPEDEAEYYCLLYYGGAYVFGCGTKVTVLDKTHTCPPCPAPEFEGGPSVFLFPPKPKDTLMISRTPEVTCVVVDVSHEDPEVKFNWYVDGVEVHNAKTKPREEQYNSTYRVVSVLTVLHQDWLNGKEYKCKVSNKALPASIEKTISKAKGQPREPQVYTLPPCREEMTKNQVSLWCLVKGFYPSDIAVEWESNGQPENNYKTTPPVLDSDGSFFLYSKLTVDKSRWQQGNVFSCSVMHEALHNHYTQKSLSLSPGK chain 2: EVQLVQSGAEVKKPGSSVKVSCKASGYTITDSNIHWVRQAPGQSLEWIGYIYPYNGGTDYNQKFKNRATLTVDNPTNTAYMELSSLRSEDTAFYYCVNGNPWLAYWGQGTLVTVSSASTKGPSVFPLAPSSKSTSGGTAALGCLVKDYFPEPVTVSWNSGALTSGVHTFPAVLQSSGLYSLSSVVTVPSSSLGTQTYICNVNHKPSNTKVDKRVEPKSCDKTHTCPPCPAPEFEGGPSVFLFPPKPKDTLMISRTPEVTCVVVDVSHEDPEVKFNWYVDGVEVHNAKTKPREEQYNSTYRVVSVLTVLHQDWLNGKEYKCKVSNKALPASIEKTISKAKGQPREPQVCTLPPSREEMTKNQVSLSCAVKGFYPSDIAVEWESNGQPENNYKTTPPVLDSDGSFFLVSKLTVDKSRWQQGNVFSCSVMHEALHNRFTQKSLSLSPGK chain 3: DIQLTQSPSTLSASVGDRVTITCRASESLDNYGIRFLTWFQQKPGKAPKLLMYAASNQGSGVPSRFSGSGSGTEFTLTISSLQPDDFATYYCQQTKEVPWSFGQGTKVEVKRTVAAPSVFIFPPSDEQLKSGTASVVCLLNNFYPREAKVQWKVDNALQSGNSQESVTEQDSKDSTYSLSSTLTLSKADYEKHKVYACEVTHQGLSSPVTKSFNRGEC | 1.71 nM | 24100 gMFI | 0.151 nM | 67300 gMFI | 0.697 nM | 59100 gMFI | 1.58 nM | 83500 gMFI | 2.35 nM | 573000 gMFI | 4690 gMFI | 2.68 nM | 18500 gMFI | 152000 gMFI | 7.93 nM |
